# Results as given in patent publication US20230416366A1 (Hoffmann-La Roche, published 2023).
# B1: CD28(SA)_variant_25 (antibody, human IgG1, kappa, L234A L235A)
# heavy: not shown
# light: not shown
# chain: DKTHTCPPCPAPEAAGGPSVFLFPPKPKDTLMISRTPEVTCVVVDVSHEDPEVKFNWYVDGVEVHNAKTKPREEQYNSTYRVVSVLTVLHQDWLNGKEYKCKVSNKALGAPIEKTISKAKGQPREPQVCTLPPSRDELTKNQVSLSCAVKGFYPSDIAVEWESNGQPENNYKTTPPVLDSDGSFFLVSKLTVDKSRWQQGNVFSCSVMHEALHNRFTQKSLSLSP
# notes: monovalent one-armed IgG-like construct (hu IgG1 PGLALA), tested from HEK supernatant without purification; also called P1AE3081
# B2: CD28(SA)_variant_31 (antibody, human IgG1, kappa, L234A L235A)
# heavy: not shown
# light: not shown
# chain: DKTHTCPPCPAPEAAGGPSVFLFPPKPKDTLMISRTPEVTCVVVDVSHEDPEVKFNWYVDGVEVHNAKTKPREEQYNSTYRVVSVLTVLHQDWLNGKEYKCKVSNKALGAPIEKTISKAKGQPREPQVCTLPPSRDELTKNQVSLSCAVKGFYPSDIAVEWESNGQPENNYKTTPPVLDSDGSFFLVSKLTVDKSRWQQGNVFSCSVMHEALHNRFTQKSLSLSP
# notes: monovalent one-armed IgG-like construct (hu IgG1 PGLALA), tested from HEK supernatant without purification; also called P1AE3087
# B3: CD28(SA)_variant_30 (antibody, human IgG1, kappa, L234A L235A)
# heavy: not shown
# light: DIQMTQSPSSLSASVGDRVTITCRASQNIYVWLNWYQQKPGKAPKLLIYKASNLYSGVPSRFSGSRSGTDFTLTISSLQPEDFATYYCQQGQTYPYTFGQGTKLEIKRTVAAPSVFIFPPSDRKLKSGTASVVCLLNNFYPREAKVQWKVDNALQSGNSQESVTEQDSKDSTYSLSSTLTLSKADYEKHKVYACEVTHQGLSSPVTKSFNRGEC
# chain: DKTHTCPPCPAPEAAGGPSVFLFPPKPKDTLMISRTPEVTCVVVDVSHEDPEVKFNWYVDGVEVHNAKTKPREEQYNSTYRVVSVLTVLHQDWLNGKEYKCKVSNKALGAPIEKTISKAKGQPREPQVCTLPPSRDELTKNQVSLSCAVKGFYPSDIAVEWESNGQPENNYKTTPPVLDSDGSFFLVSKLTVDKSRWQQGNVFSCSVMHEALHNRFTQKSLSLSP
# notes: monovalent one-armed IgG-like construct (hu IgG1 PGLALA), tested from HEK supernatant without purification; also called P1AE3086
# B4: CD28(SA)_variant_27 (antibody, human IgG1, kappa, L234A L235A)
# heavy: not shown
# light: not shown
# chain: DKTHTCPPCPAPEAAGGPSVFLFPPKPKDTLMISRTPEVTCVVVDVSHEDPEVKFNWYVDGVEVHNAKTKPREEQYNSTYRVVSVLTVLHQDWLNGKEYKCKVSNKALGAPIEKTISKAKGQPREPQVCTLPPSRDELTKNQVSLSCAVKGFYPSDIAVEWESNGQPENNYKTTPPVLDSDGSFFLVSKLTVDKSRWQQGNVFSCSVMHEALHNRFTQKSLSLSP
# notes: monovalent one-armed IgG-like construct (hu IgG1 PGLALA), tested from HEK supernatant without purification; also called P1AE3083
# B5: CD28(SA)_variant_29 (antibody, human IgG1, kappa, L234A L235A)
# heavy: not shown
# light: not shown
# chain: DKTHTCPPCPAPEAAGGPSVFLFPPKPKDTLMISRTPEVTCVVVDVSHEDPEVKFNWYVDGVEVHNAKTKPREEQYNSTYRVVSVLTVLHQDWLNGKEYKCKVSNKALGAPIEKTISKAKGQPREPQVCTLPPSRDELTKNQVSLSCAVKGFYPSDIAVEWESNGQPENNYKTTPPVLDSDGSFFLVSKLTVDKSRWQQGNVFSCSVMHEALHNRFTQKSLSLSP
# notes: monovalent one-armed IgG-like construct (hu IgG1 PGLALA), tested from HEK supernatant without purification; also called P1AE3085
# B6: CD28(SA)_variant_26 (antibody, human IgG1, kappa, L234A L235A)
# heavy: not shown
# light: not shown
# chain: DKTHTCPPCPAPEAAGGPSVFLFPPKPKDTLMISRTPEVTCVVVDVSHEDPEVKFNWYVDGVEVHNAKTKPREEQYNSTYRVVSVLTVLHQDWLNGKEYKCKVSNKALGAPIEKTISKAKGQPREPQVCTLPPSRDELTKNQVSLSCAVKGFYPSDIAVEWESNGQPENNYKTTPPVLDSDGSFFLVSKLTVDKSRWQQGNVFSCSVMHEALHNRFTQKSLSLSP
# notes: monovalent one-armed IgG-like construct (hu IgG1 PGLALA), tested from HEK supernatant without purification; also called P1AE3082
# Target: T1, human CD28 on Jurkat reporter cells (human, UniProt P10747 19-220)
# T1 construct: Endogenous CD28 of Jurkat NFAT / Jurkat IL2 reporter cells; also called hu CD28
# Test: flow cytometry, MFI (PE) of PE-conjugated anti-human secondary, CHO cells stably overexpressing human CD28; monovalent one-armed IgG from supernatant
# Method: Binding was assessed by flow cytometry with a FACS Fortessa (BD, Software FACS Diva). Binding curves were obtained using GraphPadPrism6.
row,Binder,binding result
1,B1,binds
2,B2,binds
3,B3,binds
4,B4,binds
5,B5,binds
6,B6,binds
